Results reported in patent US20250034594A1, “RNA-GUIDED GENOME RECOMBINEERING AT KILOBASE SCALE” (THE BOARD OF TRUSTEES OF THE LELAND STANFORD JUNIOR …, priority 2021, published 2025).

B1: SSAP_109: SEQ ID NO: 278; Bacillus (multispecies) (protein, listed as Bacillus sp.)
chain: TQAEKLKNDIAKQEQKNEVAQDDKPKTILDVMMQHKESFEMALPKHLDADRLIRLAVTEFRKNPMLKECTPESLLGAVMQAAQVGLEPDALGSAYLVPYYNKNKNVKEVQLQIGYKGLIELVRRSGQVTSIVANEVYENDEFDFEYGINEKLYHKPTMDADRGKLKCFYAYARFKDGGHAFTVMSVEQINQIRDKFSKSQKNGKHFGPWADHYESMAKKTVIKQLVKYMPISVEIQNQITRDETVHSSFKEEPKPIYAFEESPDIIDAPIEN
B2: SSAP_272: SEQ ID NO: 441; Clostridium cadaveris (protein, listed as Clostridium cadaveris)
chain: ATNSSLKNQLSKKENVTIGNTMQGLLNNPKMKKRFEEILDKKAPQYMSSILNLYNGDTSLQKCEPMSVLSSSMIAATMDLPVDKNLGYAWIVPYKNKAQFQMGYKGYIQLALRTGQYKHINAIEIHEGELVNWNPLTEELEIDFTKKESDKIIGYAGYFELLNGFKKSTYWTKTQIENHRKKFSKSDYGWNKDFDAMAIKTVIRNMLSKWGILSIEMQNAYTADENIIKDSFIDDSENVSANIEDLVEADYTVNQDSLESKEEFEGTPLE
B3: SSAP_76: SEQ ID NO: 245 (protein)
chain: ANELGIFSVDNLNMTTIKQYLDGGGKASDAELVLLINLCKQNNMNPFMKEVYFIKYGNQPAQIVVSRDFYRKRAFQNPNFAGIEVGVIVLNKDGVLEHNEGTFKTHEQELVGAWARVHLKNTEIPVYVAVSYDEYVQMKDGHPNKMWTNKPCTMLGKVAESQALRMAFPAEFSGTYGEEELPEPEKEPREVNGVKEPDRAQIESFDKEDYAARKIEELKEKAQPQKEVVKETGEVIDEITAEDF
B4: SSAP_219: SEQ ID NO: 388; Streptomyces uncialis (protein, listed as Streptomyces uncialis)
chain: SQISTAIATRDNGPAAVVEQYRESLALVMPSHLQQRVGAWIRNTQGLLRRDSKLMEAAQNDVGQFVAVLMDAARLGLEPGTEHYYLVPRWNNKKRATEVTGVRGYQGEIELMYRAGAVSSVIVEVVHTQDQFRFRPGRDARPVHDIDWDLEDRGSLRLVYAYAVMKDGATSKVVVLNRQHIAAARAKSDSAAKDWSPWNTDEEAMWLKTAAHRLTKWVPTSAEYLREQIRAQVAVESEQRPEPLPVAPPPAPGTVDADPDDEGPIDGELVD
B5: SSAP_254: SEQ ID NO: 423; Pediococcus pentosaceus (protein, listed as Pediococcus pentosaceus)
chain: MNDISKVPMKVLVQQDKVQRMLENTLKGKTRQFTTSLINVVNSNQSLADVDQMSVIKSAMVAASLDLPIDQNLGFMWLVPYKGMATPQIGYKGYIQLALRTGQYKKLNTIVVHEGEMKYWNPLTEDFEYDPKGKESDEVIGYLGYLRMINGFEKTVYWTKQNIEDHRMKFSKMSGKAKPSGVWASNYDAMALKTVMRNLLSKWGIMSIEMQQAVVQDEKAPETDVRDVTPTETNSIDSLLAPEPKGEPINDSNEATVPTNAE
B6: SSAP_313: SEQ ID NO: 482; Pedobacter nototheniae (protein, listed as Pedobacter nototheniae)
chain: STEQSQQQTAARVPAKFQEGTVDSILKRVSDFQNTGELVLPANYIPENAVRAAWLMLMETTDRNDKPAIEVCTKESIANAFLEMVTKGLSVVKKQCYFVVYGNKLSLEDSYIGKIAIAKREAGVKEVNAVTIYEGDIFKYENDIETGRKRILEHKQELKNINPDKIVGA
B7: SSAP_299: SEQ ID NO: 468; Paenibacillus sp. JCM 10914 (protein, listed as Paenibacillus sp.)
chain: TMDYVTKIQDALDRELDAKHDALPSGFKKTRFSENCRAYVKDYKDLQKYDAEEVASVLFKGAVLGLDFLAKECHVITEGSALRFQTDYKGEMTLVKKYSVRPILDIYAKNVREGDDFREEISGGKPLIHFNPRAFNNSKITGSFAVALFTDGGMVYETMPAEEIESIREHYGKNPGSDTWEKSQGEMYKRTVLRRLCKTIEIDFDAEQSLAYEAGSSFEFDREQQPKKRSPFNPPEVEESEVLSNDGITETQ
B8: SSAP_226: SEQ ID NO: 395; Companilactobacillus furfuricola (protein, listed as Companilactobacillus furfuricola)
chain: VNNLAKLPIQTLVKEPKIVEKFESVLGNKSAQFVTSLINVVNSNQSLKNVDQMSVVASAMVAASLDLPINQDLGYMWLVPYGGKAQPQMGYKGYIQLAQRTGQYKHLNAVAVYEDEFQSYNPLTEQLDYEPHFKDRDSSEKPVGYVGYFELTSGFEKTVYWTRKQIDDHRQSFSKMSGKSKPSGVWATNFDAMALKTVLRNLISKWGPMSVEMQKAYESDEHATTISANDIKDIEVQEQEPATDVSQLINGSATEVNVNDSTTNSKDSE
B9: SSAP_107: SEQ ID NO: 276; Ammoniphilus oxalaticus (protein, listed as Ammoniphilus oxalaticus)
chain: STKATSNELKNQLANRQGNNAATNNNPANTIAAYLKRMAPEIEKALPAHMDADRLARIALTTIRTTPKLLECTIPSLMGAVMQSAQLGLEPGLIGHCYIIPYGKEATFIIGYKGMIDLARRSGNIESIYAHAVYKNDEFEYEYGLKPNLVHKPAMSDQGDFIGAYAVAHFKDGGYQFEFMPKEEIDKRRNRSAASKGGPWVTDYEEMAKKTVVRHMWKYLPISIEIQQAATQDEVVRKDITEDPMPVDVLDIPFEASDAEETSEEGEINFD
B10: SSAP_14: SEQ ID NO: 183 (protein)
chain: TTALQTLTNKLAERFEMGDGSGLVETLKSSAFAGATVSDAQMIALLVIANQYQLNPWTKEIYAFPGGNGGLTPIVGVDGWVRIINREPQYDGMEFHFTDDYSACTCTIYRKDRSKPIVVTEFMGECKKSSPAWNSHPKRMLRHKAMIQCARLAFGFTGIYDQDEAERIAENEKPPKNITPQNNVVETTAVELISEEQLSQIRQLMQVTGTEEAKILAYIGVQALNQIPKSQAEAVIKKLNLTLDKQNAEKADNGESVGEEIPL

Assays:
Assay type in all cases: cell-based
gene editing with Cas9 = experiment: Screen of 322 new SSAP proteins, gene editing activity with Cas9 (Table 5); set-up: Cas9 with SSAP activity: scale not given here
Summary of the method: (§1)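 The 322 SSAP proteins were found in sequence data and then synthesized. Each was screened for gene editing activity when paired with Cas9 and with dCas9.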

gene editing with dCas9 = experiment: Screen of 322 new SSAP proteins, gene editing activity with dCas9 (Table 5); set-up: dCas9 with SSAP activity: scale not given here
Summary of the method: as §1

[1] = tested on: gene editing with Cas9 and dCas9; experiment: Screen of 322 new SSAP proteins, activity across all experiments (Cas9 and dCas9, Table 5); set-up: scale not given here
Summary of the method: as §1

Row | Molecule | Cas9 with SSAP activity (gene editing with Cas9) | Cas9 with SSAP activity (normalized) (gene editing with Cas9) | dCas9 with SSAP activity (gene editing with dCas9) | dCas9 with SSAP activity (normalized) (gene editing with dCas9) | Activity across all experiments [1]
1 | B1 | −1.697 | −0.475 | −4.168 | −0.640 | −2.932
2 | B2 | 0.254 | 0.626 | 0.863 | 0.407 | 0.558
3 | B3 | −0.308 | −0.267 | −4.256 | −0.591 | −2.282
4 | B4 | 0.580 | 0.924 | −4.163 | −0.726 | −1.792
5 | B5 | −1.160 | −0.694 | −4.178 | −0.675 | −2.669
6 | B6 | −0.432 | −0.643 | −4.259 | −1.301 | −2.345
7 | B7 | −4.631 | −0.809 | −4.250 | −0.686 | −4.441
8 | B8 | −1.843 | −1.377 | −4.191 | −0.610 | −3.017
9 | B9 | 0.596 | 1.792 | −4.159 | −0.615 | −1.782
10 | B10 | −0.331 | −0.351 | −4.263 | −0.702 | −2.297
